Data published in article doi:10.64898/2025.12.08.693004 (bioRxiv, 2025).

Key:
Assay in all cases: BLI
Rat EphB1-Fc protein = target: T1, Rat EphB1-Fc protein (rat, UniProt P09759 18-538)
T1 sequence (looked up): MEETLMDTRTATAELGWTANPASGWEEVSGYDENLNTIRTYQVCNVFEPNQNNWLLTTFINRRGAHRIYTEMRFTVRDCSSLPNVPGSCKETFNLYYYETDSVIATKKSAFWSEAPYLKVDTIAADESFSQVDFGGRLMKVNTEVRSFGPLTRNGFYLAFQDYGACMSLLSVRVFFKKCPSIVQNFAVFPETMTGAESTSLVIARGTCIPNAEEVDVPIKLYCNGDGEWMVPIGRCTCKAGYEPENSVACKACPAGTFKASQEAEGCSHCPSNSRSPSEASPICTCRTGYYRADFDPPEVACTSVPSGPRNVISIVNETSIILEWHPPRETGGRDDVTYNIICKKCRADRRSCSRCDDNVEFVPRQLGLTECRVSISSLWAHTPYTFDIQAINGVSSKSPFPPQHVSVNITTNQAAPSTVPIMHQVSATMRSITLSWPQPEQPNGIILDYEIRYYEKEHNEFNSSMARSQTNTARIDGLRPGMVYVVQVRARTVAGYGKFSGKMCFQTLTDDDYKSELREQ

Human EphB3-Fc = target: T2, Human EphB3-Fc (human, UniProt P54753 38-550)
T2 sequence (looked up): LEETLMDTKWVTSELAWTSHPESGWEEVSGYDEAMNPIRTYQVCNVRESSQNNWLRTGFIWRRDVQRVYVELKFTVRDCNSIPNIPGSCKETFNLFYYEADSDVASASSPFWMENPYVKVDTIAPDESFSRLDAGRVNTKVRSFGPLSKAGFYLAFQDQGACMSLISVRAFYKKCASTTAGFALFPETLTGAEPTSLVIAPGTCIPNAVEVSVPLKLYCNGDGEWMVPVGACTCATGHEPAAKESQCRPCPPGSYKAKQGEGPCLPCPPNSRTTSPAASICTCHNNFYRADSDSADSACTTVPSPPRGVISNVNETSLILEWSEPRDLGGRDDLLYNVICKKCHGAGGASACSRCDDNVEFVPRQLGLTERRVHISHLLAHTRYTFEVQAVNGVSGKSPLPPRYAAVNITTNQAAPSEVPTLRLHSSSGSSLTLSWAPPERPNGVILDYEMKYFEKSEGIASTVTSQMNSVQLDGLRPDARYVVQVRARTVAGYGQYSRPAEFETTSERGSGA

Human EphB4-His = target: T3, Human EphB4-His (human, UniProt P54760 16-539)
T3 sequence (looked up): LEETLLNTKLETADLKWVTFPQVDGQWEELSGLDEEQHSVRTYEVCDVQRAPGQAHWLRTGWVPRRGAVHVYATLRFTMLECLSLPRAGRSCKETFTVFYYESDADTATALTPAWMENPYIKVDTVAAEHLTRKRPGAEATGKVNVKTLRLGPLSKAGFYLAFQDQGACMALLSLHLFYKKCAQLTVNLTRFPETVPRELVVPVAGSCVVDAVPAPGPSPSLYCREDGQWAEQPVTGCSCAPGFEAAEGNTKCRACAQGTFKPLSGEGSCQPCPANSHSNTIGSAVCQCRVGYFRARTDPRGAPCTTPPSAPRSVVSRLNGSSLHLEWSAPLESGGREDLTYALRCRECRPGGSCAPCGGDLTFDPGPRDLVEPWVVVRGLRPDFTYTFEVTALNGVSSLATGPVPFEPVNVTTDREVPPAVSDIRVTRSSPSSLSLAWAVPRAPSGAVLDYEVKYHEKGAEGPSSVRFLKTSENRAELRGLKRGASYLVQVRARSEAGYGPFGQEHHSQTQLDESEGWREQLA

Human EphB2-His = target: T4, Human EphB2-His (human, UniProt P29323 19-543)
T4 sequence (looked up): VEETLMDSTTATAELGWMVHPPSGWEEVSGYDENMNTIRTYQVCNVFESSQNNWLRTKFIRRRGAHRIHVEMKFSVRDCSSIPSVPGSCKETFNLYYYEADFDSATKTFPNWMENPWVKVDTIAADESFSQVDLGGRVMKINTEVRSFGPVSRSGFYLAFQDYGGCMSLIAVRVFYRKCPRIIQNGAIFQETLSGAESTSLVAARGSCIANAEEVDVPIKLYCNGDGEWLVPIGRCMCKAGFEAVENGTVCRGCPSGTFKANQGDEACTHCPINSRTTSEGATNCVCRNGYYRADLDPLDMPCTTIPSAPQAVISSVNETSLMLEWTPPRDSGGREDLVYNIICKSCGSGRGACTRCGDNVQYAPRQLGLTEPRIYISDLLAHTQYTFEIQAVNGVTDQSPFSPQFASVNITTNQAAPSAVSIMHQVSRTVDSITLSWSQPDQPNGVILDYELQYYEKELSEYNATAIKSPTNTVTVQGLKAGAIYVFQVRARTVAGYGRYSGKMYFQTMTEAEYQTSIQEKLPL

Human EphB1-His = target: T5, Human EphB1-His (human, UniProt P54762 18-540)
T5 sequence (looked up): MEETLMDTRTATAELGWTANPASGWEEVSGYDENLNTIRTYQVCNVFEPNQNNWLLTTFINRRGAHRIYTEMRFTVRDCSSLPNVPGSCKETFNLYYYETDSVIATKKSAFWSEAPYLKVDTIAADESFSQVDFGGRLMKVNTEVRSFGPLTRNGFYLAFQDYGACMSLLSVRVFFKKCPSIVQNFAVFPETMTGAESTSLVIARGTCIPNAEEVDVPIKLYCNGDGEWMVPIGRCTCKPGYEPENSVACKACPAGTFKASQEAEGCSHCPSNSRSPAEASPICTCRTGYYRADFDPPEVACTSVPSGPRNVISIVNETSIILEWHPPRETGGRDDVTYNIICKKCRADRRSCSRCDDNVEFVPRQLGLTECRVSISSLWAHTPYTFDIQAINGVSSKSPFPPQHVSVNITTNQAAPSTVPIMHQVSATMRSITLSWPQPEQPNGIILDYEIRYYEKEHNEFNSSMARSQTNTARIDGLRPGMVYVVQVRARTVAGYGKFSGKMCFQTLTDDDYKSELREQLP

B1: Mouse EphrinB2-His protein (ligand, UniProt P52800 29-232, looked up)
chain: RSIVLEPIYWNSSNSKFLPGQGLVLYPQIGDKLDIICPKVDSKTVGQYEYYKVYMVDKDQADRCTIKKENTPLLNCARPDQDVKFTIKFQEFSPNLWGLEFQKNKDYYIISTSNGSLEGLDNQEGGVCQTRAMKILMKVGQDASSAGSARNHGPTRRPELEAGTNGRSSTTSPFVKPNPGSSTDGNSAGHSGNNLLGSEVALFA
B1: binds (Rat EphB1-Fc protein); binds (Human EphB3-Fc).

B2: Human EphrinB2-Fc (Fc fusion, UniProt P52799 28-229, looked up)
chain: IVLEPIYWNSSNSKFLPGQGLVLYPQIGDKLDIICPKVDSKTVGQYEYYKVYMVDKDQADRCTIKKENTPLLNCAKPDQDIKFTIKFQEFSPNLWGLEFQKNKDYYIISTSNGSLEGLDNQEGGVCQTRAMKILMKVGQDASSAGSTRNKDPTRRPELEAGTNGRSSTTSPFVKPNPGSSTDGNSAGHSGNNILGSEVALFA
B2: binds (Human EphB4-His); binds (Human EphB2-His); binds (Human EphB1-His).
